{
  "source": "patent US20190071490A1",
  "about": "(BETH ISRAEL DEACONESS MEDICAL CENTER, published 2019)",
  "key": {"[1]": {"molecular_target": "T1, rat α-CGRP (1-37) (rat, C-terminal amide; N-terminal biotin when captured on the SA chip)", "T1 construct": "also called rat α (1-37); α-rat", "T1 peptide": "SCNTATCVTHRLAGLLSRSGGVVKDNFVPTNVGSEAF", "assay": "Biacore, 25°C, Fab over N-biotinylated CGRP on SA chip, high-resolution two-part experiment", "protocol": "(§1) Biacore assay for affinity determination. […] All Biacore assays were conducted in HBS-EP running buffer (10 mM HEPES pH 7.4, 150 mM NaCl, 3 mM EDTA, 0.005% v/v polysorbate P20). CGRP surfaces were prepared by diluting the N-biotinylated CGRP to a concentration of less than 0.001 mg/mL into HBS-EP buffer and injecting it across the SA sensor chip using variable contact times. […] Samples were typically injected for 1 minute at 100 μL/min and dissociation times of at least 10 minutes were allowed. […] An entire titration series (typically generated in duplicate) was fit globally to a 1:1 Langmuir binding model using the BIAevaluation program. This returned a unique pair of association and dissociation kinetic rate constants (respectively, kₒₙ and koff) for each binding interaction, whose ratio gave the equilibrium dissociation constant (KD=koff/kₒₙ).\n(§2) High-resolution analysis of binding interactions with extremely slow off rates. […] The protocol described above was used with the following modifications."}, "[2]": {"molecular_target": "T2, human α-CGRP 1-37 (WT) (human, C-terminal amide; N-terminal biotin when captured on the SA chip; 125I-labelled in the radioligand assay)", "T2 construct": "also called α-human", "T2 peptide": "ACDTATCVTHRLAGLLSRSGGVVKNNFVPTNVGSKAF", "assay": "Biacore, 25°C, Fab over N-biotinylated CGRP on SA chip, high-resolution two-part experiment", "protocol": "as §1, §2"}, "[3]": {"molecular_target": "T3, human α-CGRP S34A (25-37) (human, not fully specified)", "T3 construct": "the entry already carries S34A", "T3 peptide": "NNFVPTNVGAKAF-NH2", "assay": "Biacore, 37°C, G1 Fab titrated over N-biotinylated peptide on chip", "protocol": "(§3) All Biacore assays were conducted in HBS-EP running buffer (10 mM HEPES pH 7.4, 150 mM NaCl, 3 mM EDTA, 0.005% v/v polysorbate P20). CGRP surfaces were prepared by diluting the N-biotinylated CGRP to a concentration of less than 0.001 mg/mL into HBS-EP buffer and injecting it across the SA sensor chip using variable contact times. […] Samples were typically injected for 1 minute at 100 μL/min and dissociation times of at least 10 minutes were allowed. […] An entire titration series (typically generated in duplicate) was fit globally to a 1:1 Langmuir binding model using the BIAevaluation program. This returned a unique pair of association and dissociation kinetic rate constants (respectively, kₒₙ and koff) for each binding interaction, whose ratio gave the equilibrium dissociation constant (KD=koff/kₒₙ)."}, "[4]": {"molecular_target": "T4, human α-CGRP V28A (25-37) (human, not fully specified)", "T4 construct": "the entry already carries V28A", "T4 peptide": "NNFAPTNVGSKAF-NH2", "assay": "Biacore, 37°C, G1 Fab titrated over N-biotinylated peptide on chip", "protocol": "as §3"}, "[5]": {"molecular_target": "T2, human α-CGRP 1-37 (WT)", "assay": "Biacore, 37°C, G1 Fab titrated over N-biotinylated peptide on chip", "protocol": "as §3"}, "[6]": {"molecular_target": "T5, human α-CGRP fragment 19-37 (human, not fully specified)", "T5 peptide": "SGGVVKNNFVPTNVGSKAF-NH2", "assay": "Biacore, 37°C, G1 Fab titrated over N-biotinylated peptide on chip", "protocol": "as §3"}, "[7]": {"molecular_target": "T6, human α-CGRP P29A (25-37) (human, not fully specified)", "T6 construct": "the entry already carries P29A", "T6 peptide": "NNFVATNVGSKAF-NH2", "assay": "Biacore, 37°C, G1 Fab titrated over N-biotinylated peptide on chip", "protocol": "as §3"}, "[8]": {"molecular_target": "T7, human α-CGRP V32A (25-37) (human, not fully specified)", "T7 construct": "the entry already carries V32A", "T7 peptide": "NNFVPTNAGSKAF-NH2", "assay": "Biacore, 37°C, G1 Fab titrated over N-biotinylated peptide on chip", "protocol": "as §3"}, "[9]": {"molecular_target": "T8, human α-CGRP G33A (25-37) (human, not fully specified)", "T8 construct": "the entry already carries G33A", "T8 peptide": "NNFVPTNVASKAF-NH2", "assay": "Biacore, 37°C, G1 Fab titrated over N-biotinylated peptide on chip", "protocol": "as §3"}, "[10]": {"molecular_target": "T9, human α-CGRP F27A (25-37) (human, not fully specified)", "T9 construct": "the entry already carries F27A", "T9 peptide": "NNAVPTNVGSKAF-NH2", "assay": "Biacore, 37°C, G1 Fab titrated over N-biotinylated peptide on chip", "protocol": "as §3"}, "[11]": {"molecular_target": "T10, human α-CGRP K35M (19-37) (human, also: N-terminal biotin when on the chip)", "T10 construct": "the entry already carries K35M", "T10 peptide": "SGGVVKNNFVPTNVGSMAF-NH2", "assay": "Biacore, 37°C, G1 Fab titrated over N-biotinylated peptide on chip", "protocol": "as §3"}, "[12]": {"molecular_target": "T11, human α-CGRP 25-38A (human, not fully specified)", "T11 construct": "residues 25-37 with an extra alanine added at the C-terminus (in the entry); also called 38A (25-38A)", "T11 peptide": "NNFVPTNVGSKAFA-NH2", "assay": "Biacore, 37°C, G1 Fab titrated over N-biotinylated peptide on chip", "protocol": "as §3"}, "[13]": {"molecular_target": "T12, human α-CGRP K35E (19-37) (human, also: N-terminal biotin when on the chip)", "T12 construct": "the entry already carries K35E", "T12 peptide": "SGGVVKNNFVPTNVGSEAF-NH2", "assay": "Biacore, 37°C, G1 Fab titrated over N-biotinylated peptide on chip", "protocol": "as §3"}, "[14]": {"molecular_target": "T13, human α-CGRP F37A (25-37) (human, not fully specified)", "T13 construct": "the entry already carries F37A", "T13 peptide": "NNFVPTNVGSKAA-NH2", "assay": "Biacore, 37°C, G1 Fab titrated over N-biotinylated peptide on chip", "protocol": "as §3"}, "[15]": {"molecular_target": "T14, human α-CGRP K35A (19-37) (human, also: N-terminal biotin when on the chip)", "T14 construct": "the entry already carries K35A", "T14 peptide": "SGGVVKNNFVPTNVGSAAF-NH2", "assay": "Biacore, 37°C, G1 Fab titrated over N-biotinylated peptide on chip", "protocol": "as §3"}, "[16]": {"molecular_target": "T15, human α-CGRP N31A (25-37) (human, not fully specified)", "T15 construct": "the entry already carries N31A", "T15 peptide": "NNFVPTAVGSKAF-NH2", "assay": "Biacore, 37°C, G1 Fab titrated over N-biotinylated peptide on chip", "protocol": "as §3"}, "[17]": {"molecular_target": "T16, human α-CGRP fragment 25-37 (human, not fully specified)", "T16 peptide": "NNFVPTNVGSKAF-NH2", "assay": "Biacore, 37°C, G1 Fab titrated over N-biotinylated peptide on chip", "protocol": "as §3"}, "[18]": {"molecular_target": "T17, human α-CGRP K35Q (19-37) (human, not fully specified)", "T17 construct": "the entry already carries K35Q", "T17 peptide": "SGGVVKNNFVPTNVGSQAF-NH2", "assay": "Biacore, 37°C, G1 Fab titrated over N-biotinylated peptide on chip", "protocol": "as §3"}, "[19]": {"molecular_target": "T18, human α-CGRP T30A (25-37) (human, not fully specified)", "T18 construct": "the entry already carries T30A", "T18 peptide": "NNFVPANVGSKAF-NH2", "assay": "Biacore, 37°C, G1 Fab titrated over N-biotinylated peptide on chip", "protocol": "as §3"}},
  "note": "Ends that are not written are not given here.",
  "data": [
    {"binder": "antibody G1 Fab fragment (Fab, V domains shown) VH: EVQLVESGGGLVQPGGSLRLSCAASGFTFSNYWISWVRQAPGKGLEWVAEIRSESDASATHYAEAVKGRFTISRDNAKNSLYLQMNSLRAEDTAVYYCLAYFDYGLAIQNYWGQGTLVTVSS VL: EIVLTQSPATLSLSPGERATLSCKASKRVTTYVSWYQQKPGQAPRLLIYGASNRYLGIPARFSGSGSGTDFTLTISSLEPEDFAVYYCSQSYNYPYTFGQGTKLEIK", "values": [
      {"measurement": "Kd", "setting": "[1]", "value": 1.22, "unit": "nM"},
      {"measurement": "Kd", "setting": "[2]", "value": 0.042, "unit": "nM"},
      {"measurement": "Kd", "setting": "[3]", "value": 3.04, "unit": "nM"},
      {"measurement": "Kd", "setting": "[4]", "value": 0.28, "unit": "nM"},
      {"measurement": "Kd", "setting": "[5]", "value": 0.16, "unit": "nM"},
      {"measurement": "Kd", "setting": "[6]", "value": 0.16, "unit": "nM"},
      {"measurement": "Kd", "setting": "[7]", "value": 0.79, "unit": "nM"},
      {"measurement": "Kd", "setting": "[8]", "value": 1.71, "unit": "nM"},
      {"measurement": "Kd", "setting": "[9]", "value": 141, "unit": "nM"},
      {"measurement": "Kd", "setting": "[10]", "value": 0.38, "unit": "nM"},
      {"measurement": "Kd", "setting": "[11]", "value": 0.51, "unit": "nM"},
      {"measurement": "binding result", "setting": "[12]", "value": "no binding"},
      {"measurement": "Kd", "setting": "[13]", "value": 9.73, "unit": "nM"},
      {"measurement": "Kd", "setting": "[14]", "value": 95, "unit": "nM"},
      {"measurement": "Kd", "setting": "[15]", "value": 1.33, "unit": "nM"},
      {"measurement": "Kd", "setting": "[16]", "value": 0.53, "unit": "nM"},
      {"measurement": "Kd", "setting": "[17]", "value": 0.28, "unit": "nM"},
      {"measurement": "Kd", "setting": "[18]", "value": 1.38, "unit": "nM"},
      {"measurement": "Kd", "setting": "[19]", "value": 0.47, "unit": "nM"}
    ]}
  ]
}
